Measured values from paper doi:10.1101/2024.10.28.620641 (bioRxiv, 2024).

Target: the molecule itself
Assay: cryo-EM structure

B1: Caulobacter crescentus Tad pilus ATPase CpaF (enzyme, Caulobacter crescentus NA1000, UniProt Q9L714 1-501, looked up)
chain: MFGKRDSSASGDPKAPPPAPAGGATIATRPQRVEPVAAPEPKAPAPKVSGPAPKPTVGLEQLRAAQGQPQTANIVREQSDYYHATKTTIFNALLNTIDLSQLAQLDLKQAGEEIRDIVAELVAIKNVSMSVAEQEHLVQDIINDVLGYGPLEPLLARDDIADIMVNGAHRVFIEVGGKVQLTNVRFRDNLQLMNICQRIVSQVGRRVDESSPICDARLPDGSRVNVIAPPLALDGPTLTIRKFKKDKLTMKNLVEFASISPEGARVLGVIGACRCNLVISGGTGSGKTTLLNTMTAFIDPTERVVTCEDAAELQLQQPHVVRLETRPPNLEGSGAVTMRDLVKNCLRMRPERIIVGEVRGPEAFDLLQAMNTGHDGSMGTLHANSPREAISRIESMITMGGYGLPSKTIKEMIVGSVDVIIQAARLRDGSRRITHITEVVGLEGDVIVTQDLFVYEITGEDEHGKVVGKHRSTGIARPRFWDRARYYGLERELAEALDAAE
- stoichiometry N: 6
